Paper PMC10858260

How the values were obtained:
[1] = system: ApsR-P (phosphorylated with acetyl-phosphate) (Lacticaseibacillus paracasei BL23); assay: BLI; settings: BLI (BLITz, streptavidin sensors, DNA immobilized): 50 mM Tris-HCl pH 7.4, 150 mM NaCl, 0.1% Tween 20; protein preincubated 30 min with 50 mM phosphodonor and …
[2] = system: PsdR-P (phosphorylated with ammonium phosphoramidate) (Lacticaseibacillus paracasei BL23); assay: BLI; settings: BLI (BLITz, streptavidin sensors, DNA immobilized): 50 mM Tris-HCl pH 7.4, 150 mM NaCl, 0.1% Tween 20; protein preincubated 30 min with 50 mM phosphodonor and …

Row | Sequence | Kd [1] [µM] | Kd [2] [µM]
1 | CAATCATCTCGCAAACTTACATCACCTTACAAAAAGGTCAGAAAGGGTGCGAGGGGCTTGTAGATTTCCTATAATGAATAGGAATATAGACACGGAGGAC (double strand) [PmprF] | 26.6 | 0.0948
2 | GGTAAAGAAAGACTAAAGCAGCTTACAAAGCCGTAAGTTACAAACAACCATCCGTTAGGCCATTATCAGGAAAAAGGCAGCCTAACCCGCTATCATAAAG (double strand) [PderA] | 4.74 | 0.172
3 | GTAAGCTACCTTACCAGCTTGTAAGCAACTACGAATCACTGTAAGTAGGCATGGGGCATCATCCCCGCTAAGCTAATAAATGAAAGGGGACGATCACATG (double strand) [PpsdA] | 108 | 0.116
4 | TCACGCTTCTCATATTACGAAACTGTTAGCTCATTGTTACGCAATTCGTTGGCGTCATTTTTTCTGAAAACCTATAATGAATGTGTAAATAAAAACGTGG (double strand) [Pdlt] | 7.47 | 0.1
